# Experiments:
# [1] = biological target: N-terminally truncated HPV-11 E1 (E1*, amino acids 72-649) (human papilloma virus type 11 (HPV-11)) (UniProt P04014); assay: cell-based or functional assay
# [2] = biological target: T1, HPV-11 E1 (330-649) fused to the GAL4 DNA-binding domain (BD) (human papilloma virus type 11 (HPV-11)); assay: yeast two-hybrid, β-galactosidase activity (FIG. 1B)
# T1 construct: also called larger E1 fragment (330-649)
# [3] = biological target: the molecule itself; assay: BMH cross-linking of in-vitro translated truncated proteins (FIG. 11)
# [4] = biological target: the molecule itself; assay: BMH cross-linking of 35S-labelled protein, immunoprecipitation, gel electrophoresis (FIG. 10)
# [5] = biological target: the molecule itself; assay: BMH cross-linking with ss DNA (FIG. 12B)
molecule,measurement,setting,value
thioredoxin fusion protein TRX-E1 (353-431) (from UniProt P04014 353-431),50% inhibitory concentration for inhibition of the binding of E1* (72-649) to the origin,[1],3 µM
"C-terminal HPV-11 E1 fragment (amino acids 435-649) fused to the GAL4 activation domain (AD) (other, also called E1 (435-649)) DSVGNWKPIVQFLRHQNIEFIPFLSKLKLWLHGTPKKNCIAIVGPPDTGKSCFCMSLIKFLGGTVISYVNSCSHFWLQPLTDAKVALLDDATQPCWTYMDTYMRNLLDGNPMSIDRKHRALTLIKCPPLLVTSNIDISKEEKYKYLHSRVTTFTFPNPFPFDRNGNAVYELSDANWKCFFERLSSSLDIEDSEDEEDGSNSQAFRCVPGSVVRTL",binding result,[2],no binding
"truncated HPV-11 E1 (353-649) made by in-vitro translation (enzyme, also called residues 353-649 of E1) DSQFKLTEMVQWAYDNDICEESEIAFEYAQRGDFDSNARAFLNSNMQAKYVKDCAIMCRHYKHAEMKKMSIKQWIKYRGTKVDSVGNWKPIVQFLRHQNIEFIPFLSKLKLWLHGTPKKNCIAIVGPPDTGKSCFCMSLIKFLGGTVISYVNSCSHFWLQPLTDAKVALLDDATQPCWTYMDTYMRNLLDGNPMSIDRKHRALTLIKCPPLLVTSNIDISKEEKYKYLHSRVTTFTFPNPFPFDRNGNAVYELSDANWKCFFERLSSSLDIEDSEDEEDGSNSQAFRCVPGSVVRTL",binding result,[3],binds
truncated HPV-11 E1 (330-649) made by in-vitro translation (enzyme) ASTVIGEAPEWITRQTVIEHSLADSQFKLTEMVQWAYDNDICEESEIAFEYAQRGDFDSNARAFLNSNMQAKYVKDCAIMCRHYKHAEMKKMSIKQWIKYRGTKVDSVGNWKPIVQFLRHQNIEFIPFLSKLKLWLHGTPKKNCIAIVGPPDTGKSCFCMSLIKFLGGTVISYVNSCSHFWLQPLTDAKVALLDDATQPCWTYMDTYMRNLLDGNPMSIDRKHRALTLIKCPPLLVTSNIDISKEEKYKYLHSRVTTFTFPNPFPFDRNGNAVYELSDANWKCFFERLSSSLDIEDSEDEEDGSNSQAFRCVPGSVVRTL,binding result,[3],binds
"truncated HPV-11 E1 (191-649) made by in-vitro translation (enzyme, also called E1 protein comprised of amino acids 191-649) DTSGILELLKCKDIRSTLHGKFKDCFGLSFVDLIRPFKSDRTTCADWVVAGFGIHHSIADAFQKLIEPLSLYAHIQWLTNAWGMVLLVLIRFKVNKSRCTVARTLGTLLNIPENHMLIEPPKIQSGVAALYWFRTGISNASTVIGEAPEWITRQTVIEHSLADSQFKLTEMVQWAYDNDICEESEIAFEYAQRGDFDSNARAFLNSNMQAKYVKDCAIMCRHYKHAEMKKMSIKQWIKYRGTKVDSVGNWKPIVQFLRHQNIEFIPFLSKLKLWLHGTPKKNCIAIVGPPDTGKSCFCMSLIKFLGGTVISYVNSCSHFWLQPLTDAKVALLDDATQPCWTYMDTYMRNLLDGNPMSIDRKHRALTLIKCPPLLVTSNIDISKEEKYKYLHSRVTTFTFPNPFPFDRNGNAVYELSDANWKCFFERLSSSLDIEDSEDEEDGSNSQAFRCVPGSVVRTL",binding result,[3],binds
"N-terminally truncated HPV-11 E1 (E1*, amino acids 72-649) (enzyme, Made by coupled in vitro transcription/translation in rabbit reticulocyte lysate; 35S-labelled in the cross-linking assay; Forms up to hexamers; also called E1 (72-649); E1* (72-649)) ADAHYATVQDLKRKYLGSPYVSPISNVANAVESEISPRLDAIKLTTQPKKVKRRLFETRELTDSGYGYSEVEAATQVEKHGDPENGGDGEERDTGRDIEGEGVEHREAEAVDDSTREHADTSGILELLKCKDIRSTLHGKFKDCFGLSFVDLIRPFKSDRTTCADWVVAGFGIHHSIADAFQKLIEPLSLYAHIQWLTNAWGMVLLVLIRFKVNKSRCTVARTLGTLLNIPENHMLIEPPKIQSGVAALYWFRTGISNASTVIGEAPEWITRQTVIEHSLADSQFKLTEMVQWAYDNDICEESEIAFEYAQRGDFDSNARAFLNSNMQAKYVKDCAIMCRHYKHAEMKKMSIKQWIKYRGTKVDSVGNWKPIVQFLRHQNIEFIPFLSKLKLWLHGTPKKNCIAIVGPPDTGKSCFCMSLIKFLGGTVISYVNSCSHFWLQPLTDAKVALLDDATQPCWTYMDTYMRNLLDGNPMSIDRKHRALTLIKCPPLLVTSNIDISKEEKYKYLHSRVTTFTFPNPFPFDRNGNAVYELSDANWKCFFERLSSSLDIEDSEDEEDGSNSQAFRCVPGSVVRTL",binding result,[4],binds
E1* (72-649) F509A (enzyme) ADAHYATVQDLKRKYLGSPYVSPISNVANAVESEISPRLDAIKLTTQPKKVKRRLFETRELTDSGYGYSEVEAATQVEKHGDPENGGDGEERDTGRDIEGEGVEHREAEAVDDSTREHADTSGILELLKCKDIRSTLHGKFKDCFGLSFVDLIRPFKSDRTTCADWVVAGFGIHHSIADAFQKLIEPLSLYAHIQWLTNAWGMVLLVLIRFKVNKSRCTVARTLGTLLNIPENHMLIEPPKIQSGVAALYWFRTGISNASTVIGEAPEWITRQTVIEHSLADSQFKLTEMVQWAYDNDICEESEIAFEYAQRGDFDSNARAFLNSNMQAKYVKDCAIMCRHYKHAEMKKMSIKQWIKYRGTKVDSVGNWKPIVQFLRHQNIEFIPFLSKLKLWLHGTPKKNCIAIVGPPDTGKSCFCMSLIKFLGGTVISYVNSCSHAWLQPLTDAKVALLDDATQPCWTYMDTYMRNLLDGNPMSIDRKHRALTLIKCPPLLVTSNIDISKEEKYKYLHSRVTTFTFPNPFPFDRNGNAVYELSDANWKCFFERLSSSLDIEDSEDEEDGSNSQAFRCVPGSVVRTL,binding result,[5],binds

# Source: patent US20040002059A1 (Boehringer Ingelheim, published 2004)
